Reference: US20170355766A1

What was measured:
Experiment in all cases: SPR (Biacore)
[1] = molecular target: human V158 FcγRIIIa receptor protein (6xHis and GST tags) (human) (UniProt P08637)
[2] = molecular target: human FcγRIIb receptor protein (R&D Systems) (human) (UniProt P31994)
[3] = molecular target: FcγRIIaR (human) (UniProt P12318)
[4] = molecular target: human H131 FcγRIIa receptor protein (6xHis and GST tags) (human) (UniProt P12318)
[5] = molecular target: human FcγRI receptor protein (R&D Systems) (human) (UniProt P12314)
Chain of human FcγRI receptor protein (R&D Systems) (human) (P12314 16-288 limits assumed): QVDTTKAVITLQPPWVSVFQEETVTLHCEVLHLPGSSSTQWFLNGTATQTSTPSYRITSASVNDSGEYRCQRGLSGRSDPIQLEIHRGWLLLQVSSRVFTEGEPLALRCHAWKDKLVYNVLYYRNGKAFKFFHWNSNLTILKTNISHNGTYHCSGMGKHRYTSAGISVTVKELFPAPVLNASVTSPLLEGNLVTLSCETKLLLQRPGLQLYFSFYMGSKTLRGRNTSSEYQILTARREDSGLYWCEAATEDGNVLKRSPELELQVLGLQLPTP

[6] = molecular target: FcγRIIIaF (human) (UniProt P08637)
Chain of FcγRIIIaF (human) (P08637 17-208 limits assumed): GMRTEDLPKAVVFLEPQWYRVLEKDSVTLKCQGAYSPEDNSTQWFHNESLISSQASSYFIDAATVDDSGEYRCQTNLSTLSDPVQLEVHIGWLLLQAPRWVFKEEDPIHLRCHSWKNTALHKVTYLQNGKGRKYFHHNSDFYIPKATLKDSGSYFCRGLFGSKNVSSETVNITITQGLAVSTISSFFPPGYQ

Chain of FcγRIIaR (human) (P12318 34-217 H167R limits assumed): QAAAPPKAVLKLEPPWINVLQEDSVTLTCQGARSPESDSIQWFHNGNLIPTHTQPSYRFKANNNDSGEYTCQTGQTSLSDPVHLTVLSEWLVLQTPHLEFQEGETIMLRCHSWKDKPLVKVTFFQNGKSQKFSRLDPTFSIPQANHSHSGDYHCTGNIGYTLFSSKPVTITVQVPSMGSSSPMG
Chain of human FcγRIIb receptor protein (R&D Systems) (human) (P31994 46-217 limits assumed): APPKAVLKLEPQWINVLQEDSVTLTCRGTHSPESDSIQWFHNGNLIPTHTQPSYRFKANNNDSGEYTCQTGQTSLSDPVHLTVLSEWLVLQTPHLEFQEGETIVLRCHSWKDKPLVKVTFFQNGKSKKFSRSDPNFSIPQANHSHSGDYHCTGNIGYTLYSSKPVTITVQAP
Chain of human V158 FcγRIIIa receptor protein (6xHis and GST tags) (human) (P08637 17-208 F176V limits assumed): as the sequence (P08637 17-208 limits assumed) above, with F160V counted along it
Chain of human H131 FcγRIIa receptor protein (6xHis and GST tags) (human) (P12318 34-217 limits assumed): as the sequence (P12318 34-217 H167R limits assumed) above, with R134H counted along it

Substance	Fold FcγRIIb [2] [fold]	Fold FcγRIIaR [3] [fold]	also measured
S267E/H268E/L328F (antibody)	–	–	Fold FcγRIIIaV [1]: 0.092 fold
G237P (antibody)	0.0147	0.00859	–
anti-CD19 IgG1/2 ELLGG antibody with S267E/L328F	221	269	Fold FcγRIIaH [4]: 0.993 fold; Fold FcγRI [5]: 2.35 fold
G236K (antibody)	0.0147	0.00859	–
L235S (antibody)	0.0147	0.00859	–
L235N (antibody)	0.147	–	–
S267E/A327E (antibody)	–	–	Fold FcγRIIIaV [1]: 0.00894 fold
L234K (antibody)	0.0147	0.00859	–
L235P (antibody)	0.00585	–	–
G236S (antibody)	–	–	Fold FcγRIIIaV [1]: 0.00367 fold
anti-CD19 WT IgG1 antibody (HuAM4G7 Fv, native human IgG1 Fc)	–	–	Fold FcγRIIIaF [6]: 1 fold
S267E/A327D (antibody)	–	–	Fold FcγRIIIaV [1]: 0.00199 fold
G236T (antibody)	0.00225	–	–

Continued, in another order:

Fold FcγRIIb [2] [fold]	Fold FcγRIIaR [3] [fold]	Substance	also measured
0.0147	0.00859	G237E (antibody)	–
0.0147	0.00859	G236F (antibody)	–
0.0147	0.00859	G237K (antibody)	–
0.0147	–	G236V (antibody)	–
0.0147	0.00859	G236R (antibody)	–
